Consider 8 molecules from patent publication US20210095032A1 (SALUBRIS CHENGDU BIOTECH, published 2021).

B1: huD2H3-V1 (antibody, human IgG1, kappa)
heavy: not shown
light: DIVLTQSPDSLAVSLGERATINCRASESVSLHGTRLMHWYQQKPGQPPKLLISLGSNLESGVPDRFSGSGSETDFTLTISSLQAEDVAVYFCQQSIEDPWTFGQGTKLEIKRTVAAPSVFIFPPSDEQLKSGTASVVCLLNNFYPREAKVQWKVDNALQSGNSQESVTEQDSKDSTYSLSSTLTLSKADYEKHKVYACEVTHQGLSSPVTKSFNRGEC
notes: Humanized D2H3, human IgG1/kappa
B2: huD2H3-V6 (antibody, human IgG1, kappa, V domains shown)
VH: EVQLVQSGAEVKKPGSSVKVSCKSSGYTFTNYWMHWVRQAPGQGLEWIGAIFPRNSETNYNQKFKARATLTADESTSTAYMELSSLRSEDTAVYFCTRNRYGLDYWGQGTLVTVSS
VL: DIVLTQSPDSLAVSLGERATINCRASESVSLHGTRLMHWYQQKPGQPPKLLISLGSNLESGVPDRFSGSGSETDFTLTISSLQAEDVAVYFCQQSIEDPWTFGQGTKLEIKR
notes: as for B1
B3: huD2H3-V3 (antibody, human IgG1, kappa, V domains shown)
VH: EVQLVQSGAEVKKPGSSVKVSCKSSGYTFTNYWMHWVRQAPGQGLEWMGAIFPRNSETNYNQKFKARATLTADTSTSTAYMELSSLRSEDTAVYFCTRNRYGLDYWGQGTLVTVSS
VL: DIVLTQSPDSLAVSLGERATINCRASESVSLHGTRLMHWYQQKPGQPPKLLISLGSNLESGVPDRFSGSGSETDFTLTISSLQAEDVAVYFCQQSIEDPWTFGQGTKLEIKR
notes: as for B1
B4: huD2H3-V5 (antibody, human IgG1, kappa, V domains shown)
VH: EVQLVQSGAEVKKPGSSVKVSCKSSGYTFTNYWMHWVRQAPGQGLEWIGAIFPRNSETNYNQKFKARATITADTSTSTAYMELSSLRSEDTAVYFCTRNRYGLDYWGQGTLVTVSS
VL: DIVLTQSPDSLAVSLGERATINCRASESVSLHGTRLMHWYQQKPGQPPKLLISLGSNLESGVPDRFSGSGSETDFTLTISSLQAEDVAVYFCQQSIEDPWTFGQGTKLEIKR
notes: as for B1
B5: huD2H3-V4 (antibody, human IgG1, kappa, V domains shown)
VH: EVQLVQSGAEVKKPGSSVKVSCKSSGYTFTNYWMHWVRQAPGQGLEWIGAIFPRNSETNYNQKFKARVTLTADTSTSTAYMELSSLRSEDTAVYFCTRNRYGLDYWGQGTLVTVSS
VL: DIVLTQSPDSLAVSLGERATINCRASESVSLHGTRLMHWYQQKPGQPPKLLISLGSNLESGVPDRFSGSGSETDFTLTISSLQAEDVAVYFCQQSIEDPWTFGQGTKLEIKR
notes: as for B1
B6: huD2H3-V2 (antibody, human IgG1, kappa, V domains shown)
VH: EVQLVQSGAEVKKPGSSVKVSCKASGYTFTNYWMHWVRQAPGQGLEWIGAIFPRNSETNYNQKFKARATLTADTSTSTAYMELSSLRSEDTAVYFCTRNRYGLDYWGQGTLVTVSS
VL: DIVLTQSPDSLAVSLGERATINCRASESVSLHGTRLMHWYQQKPGQPPKLLISLGSNLESGVPDRFSGSGSETDFTLTISSLQAEDVAVYFCQQSIEDPWTFGQGTKLEIKR
notes: as for B1
B7: huD2H3-V8 (antibody, human IgG1, kappa)
heavy: not shown
light: DIVMTQSPDSLAVSLGERATINCRASESVSLHGTRLMHWYQQKPGQPPKLLISLGSNLESGVPDRFSGSGSETDFTLTISSLQAEDVAVYFCQQSIEDPWTFGQGTKLEIKRTVAAPSVFIFPPSDEQLKSGTASVVCLLNNFYPREAKVQWKVDNALQSGNSQESVTEQDSKDSTYSLSSTLTLSKADYEKHKVYACEVTHQGLSSPVTKSFNRGEC
notes: as for B1
B8: huD2H3-V7 (antibody, human IgG1, kappa, V domains shown)
VH: EVQLVQSGAEVKKPGSSVKVSCKSSGYTFTNYWMHWVRQAPGQGLEWIGAIFPRNSETNYNQKFKARATLTADTSTSTAYMELSSLRSEDTAVYYCTRNRYGLDYWGQGTLVTVSS
VL: DIVLTQSPDSLAVSLGERATINCRASESVSLHGTRLMHWYQQKPGQPPKLLISLGSNLESGVPDRFSGSGSETDFTLTISSLQAEDVAVYFCQQSIEDPWTFGQGTKLEIKR
notes: as for B1

The target in the first test is T1, biotin-labeled human PD-1 Fc protein (human, biotin-labeled (site not stated)).
T1 construct: also called PD-1-Fc-biotin
T1 sequence (chain, as listed by the source limits assumed): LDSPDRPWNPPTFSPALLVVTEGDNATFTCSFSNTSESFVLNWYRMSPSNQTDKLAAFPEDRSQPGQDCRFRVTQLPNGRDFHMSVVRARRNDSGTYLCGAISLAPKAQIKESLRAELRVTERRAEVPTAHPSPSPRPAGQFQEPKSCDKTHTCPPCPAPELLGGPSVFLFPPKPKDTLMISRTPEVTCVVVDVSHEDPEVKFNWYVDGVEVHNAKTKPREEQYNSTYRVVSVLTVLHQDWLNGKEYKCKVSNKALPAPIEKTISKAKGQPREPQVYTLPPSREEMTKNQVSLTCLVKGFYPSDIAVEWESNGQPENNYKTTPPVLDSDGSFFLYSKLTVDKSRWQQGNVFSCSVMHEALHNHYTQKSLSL
The experiment in a line: capture ELISA, antibody captured on plate, biotin-labeled human PD-1 Fc in solution. As for the experimental part:
(§1) Plates were washed 4 times with wash buffer (PBS+0.05% Tween-20, PBST) and then blocked with 200 μl/well blocking buffer (5% w/v non-fatty milk in PBST) for 2 hours at 37° C. […] After a final wash, plates were incubated with 100 μl/well ELISA substrate TMB (Innoreagents). The reaction was stopped in 15 minutes at 25° C. with 50 μl/well 1M H₂SO₄, and the absorbance was read at 450 nm. Data were analyzed using Graphpad Prism software and EC₅₀ values were reported.
With B1, the EC50 was determined as 0.28 ng/mL.
Consider B2, for which the response was half-maximal at 0.17 ng/mL (EC50).
B3 gave an EC50 of 0.19 ng/mL.
Molecule B4 yielded an EC50 of 0.32 ng/mL.
B5 registered a concentration giving a half-maximal response (EC50) of 0.28 ng/mL.
B6 registered an EC50 of 0.21 ng/mL.

The next test deals with T1, biotin-labeled human PD-1 Fc protein. Described as above. The source holds these as a separate data set. As for the experimental part:
as §1
Molecule B7 gave an EC50 of 0.171 ng/mL.
With B8, a half-maximal effect (EC50) was put at 0.157 ng/mL.
